One assay deals with T1, Tau fragment 1-15 (human, UniProt P10636-8 1-15).
T1 construct: range 1-15
T1 peptide (looked up): MAEPRQEFEVMEDHA
Briefly: ELISA on Tau peptides (Example 8). On the technique in general: An ELISA detects its analyte on a solid surface through an enzyme-linked reagent.

The target of another assay is T2, Tau fragment 19-33 (human, UniProt P10636-8 19-33).
T2 construct: range 19-33
T2 peptide (looked up): GLGDRKDQGGYTMHQ
Briefly: ELISA on Tau peptides (Example 8).

The next assay addresses T3, MAPT(10-24) (human, also: biotinylated).
T3 construct: also called Tau fragment 10-24
T3 peptide: VMEDHAGTYGLGDRK
Briefly: ELISA on Tau peptides (Example 8).

The next assay concerns the target T4, Tau fragment 37-51 (human, UniProt P10636-8 37-51).
T4 construct: range 37-51
T4 peptide (looked up): GDTDAGLKESPLQTP
Kind of assay: ELISA on Tau peptides (Example 8).

The target in the next assay is T5, Tau fragment 28-42 (human, UniProt P10636-8 28-42).
T5 construct: range 28-42
T5 peptide (looked up): GYTMHQDQEGDTDAG
Kind of assay: ELISA on Tau peptides (Example 8).

The target of the next assay is T6, Oligomers (In vitro oligomerised (arachidonic acid and heparin) homo-oligomer of one polypeptide; one copy of the chain is given. Biotin sits on the AVI-tag, which is left out.).
T6 construct: also called oligoTau; oligomeric Tau; not shown: AVI-tag (site-specifically biotinylated) and any purification tag or linker of the construct
Briefly: capture ELISA, antibody on anti-IgG plate, biotinylated oligomeric Tau titrated. The protocol:
For the oligoTau and monoTau capture ELISAs, antibodies contained in serum-free sterile hybridoma supernatants were immobilized on an anti-IgG coated plate at 500-fold dilution, followed by the incubation of oligoTau or monoTau, both with site-specific biotinylation via an AVI-tag. The target incubations started at 5 μg/mL and then were diluted 8- or 16-fold. Streptavidin-HRP and ABTS substrate was used for signal quantitation in a plate reader (Tecan, Switzerland). Results are expressed as O.D.

Assay [1] deals with T7, human Tau monomer (recombinant 2N4R isoform, amino acids 2-441) (human, UniProt P10636-8 2-441).
T7 construct: range 2-441; also called monomeric human Tau; monomeric Tau
Briefly: ELISA, Avi-tag biotinylated Tau monomer on Neutravidin plate, IgG titrated. On the procedure:
(§1) Following a comparison of 37D3-H9 binding to biotinylated Tau monomer and biotinylated peptide (MAPT_10-24), binding of 37D3-H9 to additional biotinylated peptides was also assessed. Nunc maxisorp 96-well microplates were coated at 4° C. for >12 hours with Neutravidin diluted to 2 μg/ml in 50 mM Sodium Carbonate Buffer, pH 9.6. All subsequent incubations were performed at room temperature. After coating, plates were blocked with Superblock™ (PBS) Blocking Buffer (Thermo Fisher Scientific) for two hours then washed thoroughly with PBS, 0.05% Polysorbate 20. Wells were then exposed to biotinylated Tau peptides (Table 20) or Avi-tag biotinylated Tau monomer at 1 μg/ml for one hour and washed as previously. Peptides were synthesized using standard solid-phase Fmoc chemistry (see, e.g., Fmoc solid phase peptide synthesis: A practical approach; Chan, W. C., White, P. D., Eds.; Oxford University Press: New York, 2000). […] Wells were washed as previously and bound antibody detected with peroxidase-conjugated secondary antibody (Invitrogen/Life Technologies) diluted 1/1000 in Superblock™ Blocking Buffer (Rabbit anti-Mouse IgG or Goat Anti-Human IgG (H+L) respectively). […] Reactions were stopped by addition of 1M Phosphoric Acid and absorbance at 450 nm was measured with a SpectraMax M2 platereader.

The target in a further assay is T8, MAPT(2-34) (human, biotinylated).
T8 construct: also called Tau fragment 2-34
T8 peptide: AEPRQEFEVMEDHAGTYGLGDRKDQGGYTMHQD
Kind of assay: ELISA, biotinylated peptide on Neutravidin plate, IgG titrated. On the procedure:
as §1

In a further assay the target is T9, MAPT(2-24) (human, biotinylated).
T9 construct: also called Tau fragment 2-24
T9 peptide: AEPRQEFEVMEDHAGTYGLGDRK
The assay is described as above. The protocol:
as §1

No end group written: not given here.

B1: 89F4-A1 (antibody, mouse IgG2a, V domains shown)
VH: EVQLVESGGGLVQPKGSLKLSCAASGFTFNTYAMNWVRQAPGKGLEWVARIRSKSNNYAAYFADSVKDRFTISRDDSQTMLYLQMNNLKSEDTAMYYCVSGGNYVPFAYWGQGTLVTVSA
VL: NIMMTQSPSSLAVSAGEKVTMSCKSSQSVFYSSEQRNYLAWYQQKPGQSPKLLISWASTRESGVPDRFTGSGSGTDFTLTISSVQGEDLAVYYCHQYLSSFTFGSGTKLEIK
For the molecule B1, the binding result with Tau fragment 1-15, with Tau fragment 19-33 and with MAPT(10-24) was “no binding (tested: not shown on the sheet)” each time.

B2: 94B2-C1 (antibody, mouse IgG2a, V domains shown)
VH: EVQLQQSGPELVKPGASMKISCKASGYSLTGYTMNWVKQSHGKNLEWIGLISPYNGVTSYNQKFKGKATLTVDKSSNTAYMELLSLTFEDSAVYYCARQGAYWGQGTLVTVSA
VL: not shown
As for B2, the binding result with Tau fragment 37-51 and with Tau fragment 28-42 was “no binding (tested: not shown on the sheet)” throughout.

B3: 19H6-F7 (antibody, mouse IgG2a, V domains shown)
VH: EVQLVESGGDLVKPGGSLKLSCAASGFTFSSYGMSWVRQTPDKRLEWVATISSGGTYTYYPDSVKGRFTISRDNAKNTLYLQMSSLKSEDTAMYYCAPSYDGAMDYWGQGTSVTVSS
VL: DVLMTQTPLSLPVSLGDQASISCRSSQSIVHSNGNTYLEWYLQKPGQSPKLLIYKVSNRFSGVPDRFSGSGSGTDFTLKISRVEAEDLGVYYCFQGSLVPWTFGGGTKLEIK
For B3, the binding result in the assay with Tau fragment 37-51, with Tau fragment 1-15, in the assay with Tau fragment 19-33 and with Tau fragment 28-42 was “no binding (tested: not shown on the sheet)” in each case.

B4: 19F8-B1 (antibody, V domains shown)
VH: EVQLQQSGPELVKPGASVKMSCKASGYTFTDYYMKWVKQSHGKSLEWIGDLNPNNGGTLYNQKFKGQATLTVDKSSSTAYMQFNSLTSEDSAVYYCARSAGYGDSFAYWGQGTLVTVSA
VL: DVLMTQTPLSLPVSLGDQASISCRSSQNIVHSNGNTYLEWYLQKPGQSPKLLIYKVSNRFSGVPDRFSGSGSGTDFTLKISRVEAEDLGIYFCFQGSHVPPTFGGGTKLEIK
notes: hybridoma supernatant
As to B4, the binding result with Oligomers is reported as “binds”.

B5: 37D3-H9 (antibody, mouse IgG2a, V domains shown)
VH: EVQLVESGGDLAKPGGSLKLSCTASGLIFRSYGMSWVRQTPDKRLEWVATINSGGTYTYYPDSVKGRFTISRDNAKNTLYLQMSSLKSEDTAMYYCANSYSGAMDYWGQGTSVTVSS
VL: DDLLTQTPLSLPVSLGDPASISCRSSQSIVHSNGNTYFEWYLQKPGQSPKLLIYKVSNRFSGVPDRFSGSGSGTDFTLKISRVEAEDLGVYYCFQGSLVPWTFGGGTKLEIK
notes: also called 37D3-H9 mIgG2a; 37D3-H9 IgG
B5: the “EC50 (read off the curve)” value in [1] is approximately 100 pM; with MAPT(2-34), approximately 200 pM; with MAPT(2-24), approximately 200 pM. Besides, the binding result with Tau fragment 37-51, with Tau fragment 1-15, with Tau fragment 19-33 and with Tau fragment 28-42 was “no binding (tested: not shown on the sheet)” each time.

B6: 123E9-A1 (antibody, mouse IgG2a, V domains shown)
VH: EVQLQQSGPELVKPGASVKMSCKASGYTFTDYYMKWVKQSHGKSLEWIGDIDPNNGGTSYNQKFKGKATLTVDKSSSTAYMQLNSLTSEDSAVYYCARSAGFGDSFSFWGLGTLVTVSA
VL: DVLMTQTPLSLPVSLGDQASISCRSSQSIVHSNGNTYLEWYLQKPGQSPKLLIYKVSNRFSGVPDRFSGSGSGTDFTLKISRVEAEDLGFYYCFQGSHVPPTFGGGTKLEIK
As to B6, the binding result with Tau fragment 37-51, with Tau fragment 1-15 and in the assay with MAPT(10-24) was “no binding (tested: not shown on the sheet)” in each case.

B7: 11E10-B8 (antibody, mouse IgG2a, V domains shown)
VH: EVQLVESGGDLVKPGGSLKLSCAASGFTFRSYGMSWVRQTPDKRLEWVATISGGGSYTYYPDSVKGRFTISRDNAKNTLYLQMSSLKSEDTAMYYCAVSYDGAMDYWGQGTSVTVSS
VL: DVLMTQTPLSLPVSLGDQASISCRSSQSIVHSNGNTYLEWYLQKPGQSPKLLIYKVSNRFSGVPDRFSGSGSGTDFTLKISRVEAEDLGLYYCFQGSHVPWTFGGGTKLEIK
On to B7, for which the binding result with Oligomers is given as “binds”.

B8: 3A4-H4 (antibody, mouse IgG2a, V domains shown)
VH: EVQLVESGGDLVKPGGSLKLSCAASGFTFSSYGMSWVRQTPDKRLEWVATISSGGTYTYYPDSVKGRFTISRDNAKNTLYLQMSSLKSEDTAMYFCATSYDGAMDYWGQGTSVTVSS
VL: DVLMTQTPLSLPVSLGDQASISCRSSQNIVHSNGNTYLEWYLQKPGQSPKLLIYKVSNRFSGVPDRFSGSGSGTDFTLKISRVEAEDLGVYYCFQGTLVPWTFGGGTKLEIK
In the case of B8, the binding result with Tau fragment 37-51 is given as “no binding (tested: not shown on the sheet)”; in the assay with Tau fragment 1-15 it was “no binding (tested: not shown on the sheet)”; with Tau fragment 19-33, “no binding (tested: not shown on the sheet)”; in the assay with MAPT(10-24), “binds”; in the assay with Tau fragment 28-42, “no binding (tested: not shown on the sheet)”.

B9: 54C1-H11 (antibody, mouse IgG2a, V domains shown)
VH: EVQLVESGGDLVKPGGSLKVSCVASGFTFRSYGMSWVRQTPDKRLDWVATISSGGNYTYYPDSVKGRFTISRDNAKNTLYLQMSSLKSEDTAMYYCASSYSGAMDYWGQGTSVTVSS
VL: DTVMTQSPLSLPVSLGDQASISCRSSQSIVHSNGNTYLEWYLQKPGQSPKLLIYTVSNRFSGVPDRFSGSGSGTDFTLKISRVEAEDLGVYYCFQGSHVPWTFGGGTKLEIK
On to B9, for which the binding result in the assay with Tau fragment 37-51, with Tau fragment 1-15, with Tau fragment 19-33 and with Tau fragment 28-42 was “no binding (tested: not shown on the sheet)” each time.

B10: 26C1-C8 (antibody, V domains shown)
VH: EVHLQQSGAELVRSGASVKLSCTASGFNIKDYYMYWVKQRPEQGLEWIGWIDPENGDTEYFPKFQGKATMTADTSSKTAYLQLSSLTSEDTAVYYCNAWRARATNSALDYWGQGTSVTVSS
VL: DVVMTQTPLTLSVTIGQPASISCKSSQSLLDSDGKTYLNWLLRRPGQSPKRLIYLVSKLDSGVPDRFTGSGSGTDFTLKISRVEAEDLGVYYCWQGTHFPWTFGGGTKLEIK
notes: hybridoma supernatant
B10: in the assay with Oligomers, the binding result is on record as “binds”.

The EC50 (read off the curve) is the concentration needed to bring the measured effect to its halfway point.

(Values after patent US20190112361A1 (Genentech, published 2019).)
